The text below walks through data of the RNAGym collection of RNA variant scans (doi:10.7554/elife.80360).

B1: CPEB3 Ribozyme (parent)
chain: GGGGGCCACAGCAGAAGCGUUCACGUCGCGGCCCCUGUCAGAUUCUGGUGAAUCUGCGAAUUCUGCUGU

The variants in this data set derive from B1. As to the kind of experiment: self-cleavage, relative activity (ratio to wild type); higher = more cleavage; co-transcriptional.
Consider A16G G48U, for which the self-cleavage worked out at 0.974.
On to A16G G48A, for which the self-cleavage stood at 0.964.
The same measure for A16G G48C: 0.892; for G17A C33U: 0.43; for G17A G19A: 0.154.
The value for G17A G19C was 0.095; that for G17A G19U was 0.114.
The value for A16G A23C was 0.928.
For the variant A16G A23U, the self-cleavage amounted to 0.955.
The same measure for A16G A23G: 0.921; for A16G U26G: 0.848; for A16G U26A: 0.801.
The same measure for A16U C35A: 0.159.
The same measure for A16U C35G: 0.213; for A16U C35U: 0.768.
As to A16U A42G, the self-cleavage came out at 0.739.
In the case of A16U A42C, the self-cleavage worked out at 0.746.
Take A16G G17U: the self-cleavage was 0.559.
The value for A16G G17A was 0.0854; that for A16U U44A was 0.729.
Take A16U U44C: the self-cleavage came out at 0.703.
The value for A16C U43A was 0.118; that for A16U U38C was 0.625.
On to A16U U38A, for which the self-cleavage amounted to 0.424.
In the case of G17A G50A, the self-cleavage came out at 0.488.
The same measure for G17A G50C: 0.387.
The same measure for G17A G50U: 0.547.
The value for A16U U67A was 0.877; that for A16U U67G was 0.9; that for A16C U21G was 0.0655.
For the variant A16C U21A, the self-cleavage stood at 0.273.
The same measure for G17A G25C: 0.147; for G17A G25A: 0.201.
The value for G17A G25U was 0.117; that for A16C U38C was 0.137.
Take A16C U38G: the self-cleavage stood at 0.15.
For A16C U38A, the self-cleavage was determined as 0.269.
The value for G17A C57U was 0.197; that for G17A C57A was 0.145; that for G17A C57G was 0.227.
The value for A16G G50U was 0.994.
The value for A16U U55G was 0.335; that for G17A G37A was 0.153.
As to G17A G37C, the self-cleavage was determined as 0.149.
The same measure for A16U U20A: 0.124; for A16U U20C: 0.196; for G17A G58C: 0.454.
Consider G17A G58A, for which the self-cleavage amounted to 0.259.
Regarding G17A G58U, the self-cleavage is 0.539.
The same measure for G17A C63A: 0.171; for G17A C63G: 0.257.
The same measure for A16U G47A: 0.893.
The same measure for A16U U36C: 0.438.
A16U U36A: the self-cleavage turned out to be 0.166.
The same measure for A16U C18A: 0.0736.
On to A16U U49G, for which the self-cleavage was determined as 0.817.
Take A16U U49A: the self-cleavage was 0.96.
Take A16U U49C: the self-cleavage is 0.834.
The same measure for A16C G56U: 0.145.
The same measure for A16U C29G: 0.243.
The same measure for A16U C29A: 0.288; for A16U G58A: 0.866; for A16U G58C: 0.756.
With A16U G28A, the self-cleavage was determined as 0.0797.
The value for A16U G28U was 0.131; that for A16U G28C was 0.166; that for A16G G47U was 0.998.
On to G17A A60U, for which the self-cleavage amounted to 0.203.
On to A16U A51G, for which the self-cleavage was determined as 0.841.
The value for A16U A51U was 0.853.
The value for A16G U53C was 0.622; that for A16U C32U was 0.936; that for A16U C32G was 0.24.
The value for A16G U20A was 0.129; that for A16G U20G was 0.155; that for A16G U20C was 0.159.
Regarding A16U C45A, the self-cleavage is 0.842.
For the variant G17A C24G, the self-cleavage came out at 0.116.
The value for G17A C24A was 0.221; that for A16U A52G was 0.888; that for A16G C57U was 0.317.
As for A16G C57G, the self-cleavage was found to be 0.324.
The same measure for A16G C57A: 0.335; for G17A U61G: 0.237.
The same measure for A16U G25C: 0.194; for A16G C35U: 0.893; for A16G G37U: 0.216.
As to A16G G37C, the self-cleavage came out at 0.146.
The value for A16G G31A was 0.527; that for A16G G31C was 0.147.
As to A16G G31U, the self-cleavage is 0.309.
The same measure for A16C U64G: 0.119.
Turning to A16U C63G, the self-cleavage turned out to be 0.361.
The same measure for A16G G28C: 0.0652; for A16U U26C: 0.812; for A16U U26A: 0.221.
The same measure for G17A A40C: 0.145; for G17A A40U: 0.2.
The same measure for A16C G58C: 0.28; for A16C G58U: 0.494.
For A16C G58A, the self-cleavage was 0.189.
The same measure for A16U U64A: 0.588; for A16U U64G: 0.545; for A16U U64C: 0.463.
With G17A U26C, the self-cleavage stood at 0.335.
The same measure for G17A U26G: 0.413.
As for A16G U61G, the self-cleavage came out at 0.732.
The value for A16G U61A was 0.833.
As to A16G U61C, the self-cleavage turned out to be 0.951.
In the case of A16U G17U, the self-cleavage is 0.147.
The value for A16U G17A was 0.203.
G17A G28U: the self-cleavage was determined as 0.139.
Regarding G17A G28A, the self-cleavage worked out at 0.145.
The value for A16C U69A was 0.451.
For the variant A16C U69G, the self-cleavage is 0.588.
The value for A16C U55A was 0.153; that for A16C U55G was 0.204; that for G17A U21G was 0.128.
On to G17A U21C, for which the self-cleavage was determined as 0.169.
The same measure for G17A U21A: 0.384; for A16U A60C: 0.227; for A16U A60U: 0.251.
The value for A16U A60G was 0.56; that for G17A C34U was 0.524; that for G17A C34A was 0.2.
The value for A16U G48A was 0.862; that for A16U G48C was 0.889; that for A16C U36C was 0.165.
On to A16C U36G, for which the self-cleavage stood at 0.108.
The value for A16C U36A was 0.115; that for A16U G56C was 0.82; that for A16U G56A was 0.616.
The value for A16U G56U was 0.624; that for A16U C22A was 0.12.
The same measure for A16G U49G: 0.979; for G17A A59G: 0.691.
With A16G U55C, the self-cleavage is 0.534.
The value for A16G C34G was 0.576; that for A16G C34A was 0.583.
The value for A16G C34U was 0.845; that for A16U G41C was 0.366; that for G17A U64A was 0.211.
With A16G A59G, the self-cleavage came to 0.944.
The value for A16G A59C was 0.417; that for A16C U67A was 0.331; that for A16C U67G was 0.257.
For the variant A16G U46C, the self-cleavage amounted to 0.728.
The same measure for A16G U46G: 0.969; for A16U G65A: 0.442.
The same measure for G17A C66U: 0.347; for G17A C66A: 0.226; for G17A C66G: 0.233.
The same measure for A16U C57U: 0.196.
Consider A16U C57G, for which the self-cleavage turned out to be 0.246.
The value for A16G U62A was 0.712; that for A16G U62C was 0.788; that for A16G U69G was 1.04.
For the variant A16G U69A, the self-cleavage amounted to 1.04.
The same measure for G17A G48C: 0.599.
Consider G17A C22A, for which the self-cleavage amounted to 0.157.
Turning to G17A C22G, the self-cleavage came out at 0.127.
The value for A16G C22G was 0.0656; that for A16U C39G was 0.693; that for A16U C39A was 0.317.
A16U C39U: the self-cleavage was 0.533.
For the variant A16U U46C, the self-cleavage turned out to be 0.874.
The value for A16G C32U was 0.941.
